Data: PMC10786891, “Massively parallel profiling of RNA-targeting CRISPR-Cas13d”

Target: T1, EsCas13d, nuclease-dead (Eubacterium siraeum, UniProt B0MS50, R295A;H300A;R849A;H854A)
T1 sequence: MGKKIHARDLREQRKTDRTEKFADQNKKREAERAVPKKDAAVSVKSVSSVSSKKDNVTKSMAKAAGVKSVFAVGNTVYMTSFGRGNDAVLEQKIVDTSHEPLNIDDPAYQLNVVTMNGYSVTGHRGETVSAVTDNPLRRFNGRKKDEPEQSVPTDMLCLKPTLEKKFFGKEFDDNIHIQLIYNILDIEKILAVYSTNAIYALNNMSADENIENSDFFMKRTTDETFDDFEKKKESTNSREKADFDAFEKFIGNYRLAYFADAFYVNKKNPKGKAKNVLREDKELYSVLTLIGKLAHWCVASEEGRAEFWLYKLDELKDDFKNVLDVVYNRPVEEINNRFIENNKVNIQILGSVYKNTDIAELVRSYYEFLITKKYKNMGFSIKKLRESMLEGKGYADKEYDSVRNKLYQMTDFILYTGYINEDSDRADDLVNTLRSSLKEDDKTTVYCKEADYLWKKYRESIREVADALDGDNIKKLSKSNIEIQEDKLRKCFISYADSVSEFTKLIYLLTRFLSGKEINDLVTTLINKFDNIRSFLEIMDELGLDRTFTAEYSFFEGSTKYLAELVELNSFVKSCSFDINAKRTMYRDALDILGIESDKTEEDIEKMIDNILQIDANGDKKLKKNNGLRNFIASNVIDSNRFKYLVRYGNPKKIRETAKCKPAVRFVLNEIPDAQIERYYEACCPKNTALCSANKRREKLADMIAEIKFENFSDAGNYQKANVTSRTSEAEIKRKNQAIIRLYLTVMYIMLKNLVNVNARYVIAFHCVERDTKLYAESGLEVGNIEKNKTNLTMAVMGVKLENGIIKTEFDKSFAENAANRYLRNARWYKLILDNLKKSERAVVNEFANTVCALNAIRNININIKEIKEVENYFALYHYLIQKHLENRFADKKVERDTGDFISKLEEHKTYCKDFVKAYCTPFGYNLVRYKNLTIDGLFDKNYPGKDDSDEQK
Experiment: BLI; crRNA (strand 1, pre-loaded); Mg2+; 40 mM Tris-HCl pH 7.5, 150 mM NaCl, 6 mM MgCl2, 1 mM DTT, 0.1% Tween-20, 0.2 mg/ml BSA; temperature not stated
Conditions: tags: His6-TwinStrep-SUMO cleaved; label: 3' biotin on strand 2

B1: crRNA-2 (D950N) target (mixed)
RNA 1: CACCCGUGCAAAAUUGCAGGGGUCUAAAACCUUGAAGUUUUCCAAGUGCACU
RNA 2: UCCACAGCAAGUGCACUUGGAAAACUUCAAAAUGUGGUCA
Kd: 2.9 nM

B2: crRNA-1 (D950N) target (mixed)
RNA 1: CACCCGUGCAAAAUUGCAGGGGUCUAAAACUUUUGGUUGACCACAUCUUGAA
RNA 2: UUGGAAAACUUCAAAAUGUGGUCAACCAAAAUGCACAAGC
Kd: 15 nM
